System: Escherichia coli TOP10
Assay: shrunken log2 fold change of peptide-encoding DNA abundance (4.5 h post-induction vs induction); higher = less antimicrobial activity (less host growth inhibition)
Conditions: time post-induction: 4.5 h; library: site-saturation at positions 5, 18, 19, 20
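Note: peptides expressed intracellularly from a pBAD plasmid library in pooled LB shake-flask culture, induced with 0.3% L-arabinose, DNA abundance read by NGS, three biological replicates, DESeq2 with apeglm shrinkage.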

Row | Sequence | shrunken log2 fold change
1 | RRIRARPPRLPRPRPRPVWKPRP | 0.125
2 | RRIRWRPPRLPRPRPRPATEPRP | 0.479
3 | RRIRIRPPRLPRPRPRPYEAPRP | -0.18
4 | RRIRSRPPRLPRPRPRPPQMPRP | 0.154
5 | RRIRDRPPRLPRPRPRPCRKPRP | -0.00804
6 | RRIRFRPPRLPRPRPRPHAPPRP | -0.062
7 | RRIRIRPPRLPRPRPRPPTWPRP | -0.101
8 | RRIRWRPPRLPRPRPRPVIFPRP | 1.32
9 | RRIRQRPPRLPRPRPRPTNGPRP | -0.0973
10 | RRIRDRPPRLPRPRPRPIHHPRP | -0.649
11 | RRIRKRPPRLPRPRPRPACDPRP | 0.861
12 | RRIRDRPPRLPRPRPRPIPKPRP | -0.0116
13 | RRIRSRPPRLPRPRPRPKCNPRP | -0.174
14 | RRIRPRPPRLPRPRPRPWGRPRP | 0.122
15 | RRIRFRPPRLPRPRPRPKFSPRP | -0.0365
16 | RRIRFRPPRLPRPRPRPHVWPRP | 0.491
17 | RRIRARPPRLPRPRPRPPRGPRP | 0.833
18 | RRIRARPPRLPRPRPRPALHPRP | 0.651
19 | RRIRARPPRLPRPRPRPWANPRP | 0.201
20 | RRIRLRPPRLPRPRPRPYPSPRP | 0.085
21 | RRIRKRPPRLPRPRPRPIENPRP | -0.0721
22 | RRIRCRPPRLPRPRPRPIEDPRP | 0.102
23 | RRIRYRPPRLPRPRPRPLYMPRP | -0.441
24 | RRIRHRPPRLPRPRPRPAERPRP | 0.0935
25 | RRIRQRPPRLPRPRPRPPFGPRP | 0.219

Row | Sequence | shrunken log2 fold change
26 | RRIRQRPPRLPRPRPRPTEQPRP | 0.0331
27 | RRIRRRPPRLPRPRPRPVRRPRP | 0.619
28 | RRIRYRPPRLPRPRPRPPKYPRP | -0.97
29 | RRIRFRPPRLPRPRPRPFILPRP | -0.749
30 | RRIRERPPRLPRPRPRPICMPRP | -0.309
31 | RRIRRRPPRLPRPRPRPFITPRP | -0.257
32 | RRIRGRPPRLPRPRPRPLKQPRP | -0.115
33 | RRIRSRPPRLPRPRPRPGDLPRP | -0.091
34 | RRIRRRPPRLPRPRPRPYYHPRP | -0.645
35 | RRIRDRPPRLPRPRPRPNNLPRP | -0.556
36 | RRIRNRPPRLPRPRPRPQTVPRP | -0.0578
37 | RRIRIRPPRLPRPRPRPHQGPRP | -0.117
38 | RRIRPRPPRLPRPRPRPWRFPRP | 0.212
39 | RRIRYRPPRLPRPRPRPITHPRP | -0.211
40 | RRIRYRPPRLPRPRPRPRTHPRP | -0.318
41 | RRIRPRPPRLPRPRPRPDVRPRP | 1.79
42 | RRIRYRPPRLPRPRPRPSYPPRP | -0.217
43 | RRIRWRPPRLPRPRPRPDSWPRP | 0.251
44 | RRIRRRPPRLPRPRPRPVPEPRP | 0.543
45 | RRIRDRPPRLPRPRPRPGTTPRP | 0.427
46 | RRIRIRPPRLPRPRPRPEYGPRP | -0.0842
47 | RRIRERPPRLPRPRPRPDSTPRP | -0.0931
48 | RRIRRRPPRLPRPRPRPNLMPRP | 0.85
49 | RRIRRRPPRLPRPRPRPIGLPRP | -0.0953
50 | RRIRIRPPRLPRPRPRPLNPPRP | -0.428

Row | Sequence | shrunken log2 fold change
51 | RRIRHRPPRLPRPRPRPNHPPRP | -0.254
52 | RRIRVRPPRLPRPRPRPLMLPRP | -0.202
53 | RRIRSRPPRLPRPRPRPIPFPRP | -0.518
54 | RRIRCRPPRLPRPRPRPERAPRP | 0.675
55 | RRIRSRPPRLPRPRPRPVWQPRP | 0.168
56 | RRIRERPPRLPRPRPRPKKIPRP | -0.515
57 | RRIRWRPPRLPRPRPRPIFVPRP | 0.0493
58 | RRIRKRPPRLPRPRPRPRWYPRP | 0.275
59 | RRIRLRPPRLPRPRPRPRKYPRP | -0.882
60 | RRIRIRPPRLPRPRPRPIHIPRP | -0.149
61 | RRIRCRPPRLPRPRPRPLHYPRP | -0.352
62 | RRIRQRPPRLPRPRPRPDNTPRP | -0.178
63 | RRIRERPPRLPRPRPRPDLNPRP | -0.322
64 | RRIRDRPPRLPRPRPRPTYQPRP | -0.0238
65 | RRIRSRPPRLPRPRPRPTDMPRP | 0.0156
66 | RRIRYRPPRLPRPRPRPRGLPRP | -0.0424
67 | RRIRPRPPRLPRPRPRPFKVPRP | -0.0681
68 | RRIRGRPPRLPRPRPRPANHPRP | 0.0248
69 | RRIRKRPPRLPRPRPRPFQNPRP | -0.0235
70 | RRIRNRPPRLPRPRPRPEFFPRP | -0.064
71 | RRIRDRPPRLPRPRPRPNEKPRP | -0.0281
72 | RRIRVRPPRLPRPRPRPWQWPRP | -0.0592
73 | RRIRGRPPRLPRPRPRPQDFPRP | 0.178
74 | RRIRMRPPRLPRPRPRPRCMPRP | 0.511
75 | RRIRSRPPRLPRPRPRPNSWPRP | 0.0508

Row | Sequence | shrunken log2 fold change
76 | RRIRCRPPRLPRPRPRPGPAPRP | 0.543
77 | RRIRARPPRLPRPRPRPMIGPRP | 0.102
78 | RRIRMRPPRLPRPRPRPQWQPRP | 0.825
79 | RRIRIRPPRLPRPRPRPGGLPRP | -0.16
80 | RRIRYRPPRLPRPRPRPCNIPRP | -0.463
81 | RRIRARPPRLPRPRPRPCRCPRP | 0.0187
82 | RRIRRRPPRLPRPRPRPPMHPRP | 0.693
83 | RRIRHRPPRLPRPRPRPWDLPRP | -0.245
84 | RRIRWRPPRLPRPRPRPPWWPRP | 0.674
85 | RRIRERPPRLPRPRPRPTEFPRP | 0.000688
86 | RRIRYRPPRLPRPRPRPDIMPRP | -1.15
87 | RRIRTRPPRLPRPRPRPSAPPRP | 0.269
88 | RRIRCRPPRLPRPRPRPNQSPRP | 2.47
89 | RRIRARPPRLPRPRPRPAWSPRP | 0.329
90 | RRIRCRPPRLPRPRPRPWTHPRP | -0.325
91 | RRIRIRPPRLPRPRPRPCNMPRP | -0.0732
92 | RRIRTRPPRLPRPRPRPSTGPRP | -0.285
93 | RRIRVRPPRLPRPRPRPKDQPRP | 0.0584
94 | RRIRCRPPRLPRPRPRPMCDPRP | 0.128
95 | RRIRWRPPRLPRPRPRPCPWPRP | -0.0137
96 | RRIRFRPPRLPRPRPRPPANPRP | 0.858
97 | RRIRHRPPRLPRPRPRPNVFPRP | -0.116
98 | RRIRKRPPRLPRPRPRPWFMPRP | -0.202
99 | RRIRIRPPRLPRPRPRPLCDPRP | -0.655
100 | RRIRERPPRLPRPRPRPDESPRP | -0.304

Row | Sequence | shrunken log2 fold change
101 | RRIRKRPPRLPRPRPRPSSNPRP | -0.0818
102 | RRIRVRPPRLPRPRPRPHQFPRP | -0.0147
103 | RRIRQRPPRLPRPRPRPFQAPRP | -0.207
104 | RRIRNRPPRLPRPRPRPNHGPRP | -0.0113
105 | RRIRDRPPRLPRPRPRPSNYPRP | -0.29
106 | RRIRIRPPRLPRPRPRPMMEPRP | -0.599
107 | RRIRSRPPRLPRPRPRPCPYPRP | 0.0125
108 | RRIRNRPPRLPRPRPRPQHFPRP | -0.0338
109 | RRIRNRPPRLPRPRPRPHKKPRP | -0.00756
110 | RRIRDRPPRLPRPRPRPCWIPRP | -0.255
111 | RRIRERPPRLPRPRPRPFQYPRP | -0.64
112 | RRIRQRPPRLPRPRPRPGGPPRP | 0.0535
113 | RRIRCRPPRLPRPRPRPVEGPRP | 0.0501
114 | RRIRLRPPRLPRPRPRPKTQPRP | -0.189
115 | RRIRRRPPRLPRPRPRPENHPRP | 0.0228
116 | RRIRCRPPRLPRPRPRPVFIPRP | -0.612
117 | RRIRCRPPRLPRPRPRPQCSPRP | -0.0788
118 | RRIRCRPPRLPRPRPRPLAAPRP | 0.351
119 | RRIRKRPPRLPRPRPRPRCFPRP | 0.412
120 | RRIRDRPPRLPRPRPRPTKYPRP | -0.286
121 | RRIRWRPPRLPRPRPRPDLIPRP | 0.0332
122 | RRIRRRPPRLPRPRPRPVWAPRP | 0.339
123 | RRIRYRPPRLPRPRPRPPVNPRP | -0.153
124 | RRIRSRPPRLPRPRPRPHNCPRP | -0.159
125 | RRIRYRPPRLPRPRPRPLYWPRP | -0.943

Row | Sequence | shrunken log2 fold change
126 | RRIRCRPPRLPRPRPRPCQFPRP | -0.0777
127 | RRIRSRPPRLPRPRPRPWRTPRP | 0.311
128 | RRIRTRPPRLPRPRPRPLFYPRP | -0.467
129 | RRIRCRPPRLPRPRPRPMATPRP | 0.0993
130 | RRIRDRPPRLPRPRPRPKFSPRP | -0.023
131 | RRIRRRPPRLPRPRPRPHFWPRP | 0.51
132 | RRIRQRPPRLPRPRPRPDMYPRP | 0.0381
133 | RRIRPRPPRLPRPRPRPNTGPRP | 0.881
134 | RRIRARPPRLPRPRPRPIARPRP | 1.01
135 | RRIRKRPPRLPRPRPRPKWKPRP | 0.479
136 | RRIRLRPPRLPRPRPRPKKVPRP | -0.0117
137 | RRIRTRPPRLPRPRPRPTKPPRP | 0.0402
138 | RRIRNRPPRLPRPRPRPNCWPRP | 0.241
139 | RRIRFRPPRLPRPRPRPPLIPRP | -0.182
140 | RRIRWRPPRLPRPRPRPHKQPRP | -0.0365
141 | RRIRMRPPRLPRPRPRPRNNPRP | 0.063
142 | RRIRDRPPRLPRPRPRPIEFPRP | 0.144
143 | RRIRPRPPRLPRPRPRPMFGPRP | -0.253
144 | RRIRNRPPRLPRPRPRPVVCPRP | -0.06
145 | RRIRGRPPRLPRPRPRPHHRPRP | -0.00334
146 | RRIRGRPPRLPRPRPRPYSAPRP | -0.29
147 | RRIRERPPRLPRPRPRPWVAPRP | -0.00272
148 | RRIRTRPPRLPRPRPRPETAPRP | 0.4
149 | RRIRSRPPRLPRPRPRPGIAPRP | 0.409
150 | RRIRHRPPRLPRPRPRPCMCPRP | -0.245
